# Source: patent publication US20070003517A1 (UNIVERSITY OF MASSACHUSETTS, published 2007)
# B1: GST-JIP-1 fusion protein containing residues 164-240 of JIP-1 (other)
# chain: PQVPRSQDTLNNNSLGKKHSWQDRVSRSSSPLKTGEQTPPHEHICLSDELPPQGSPVPTQDRGTSTDSPCRRSAATQ
# notes: not shown: glutathione-S-transferase (GST) of vector pGEX-3X
# B2: GST-JIP-1 fusion protein containing residues 203-281 of JIP-1 (other)
# chain: PHEHICLSDELPPQGSPVPTQDRGTSTDSPCRRSAATQMAPPSGPPATAPGGRGHSHRDRIHYQADVRLEATEEIYLTP
# notes: as for B1
# How the values were obtained:
# [1] = system: T1, JIP-1 (as added to the in vitro protein kinase assay)
# T1 sequence: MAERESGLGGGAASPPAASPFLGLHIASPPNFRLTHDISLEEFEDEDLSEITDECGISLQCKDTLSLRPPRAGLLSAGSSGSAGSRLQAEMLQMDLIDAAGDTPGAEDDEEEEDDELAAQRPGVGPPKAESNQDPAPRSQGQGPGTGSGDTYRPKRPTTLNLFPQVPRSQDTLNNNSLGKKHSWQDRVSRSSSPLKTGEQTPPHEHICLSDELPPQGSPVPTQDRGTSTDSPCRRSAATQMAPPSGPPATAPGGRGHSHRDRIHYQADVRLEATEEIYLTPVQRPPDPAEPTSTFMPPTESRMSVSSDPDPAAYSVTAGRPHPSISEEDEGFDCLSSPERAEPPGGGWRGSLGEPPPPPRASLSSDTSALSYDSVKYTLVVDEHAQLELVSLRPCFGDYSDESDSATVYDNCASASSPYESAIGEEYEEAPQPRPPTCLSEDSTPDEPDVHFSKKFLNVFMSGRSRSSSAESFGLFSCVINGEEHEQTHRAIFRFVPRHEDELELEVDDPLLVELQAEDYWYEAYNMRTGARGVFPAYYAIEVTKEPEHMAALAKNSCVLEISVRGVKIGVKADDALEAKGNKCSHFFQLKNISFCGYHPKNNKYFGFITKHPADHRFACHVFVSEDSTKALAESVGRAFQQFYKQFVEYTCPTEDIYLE
# [2] = biological target: T2, Flag epitope-tagged JNK1 (cell lysate) (human, UniProt P45983-2 1-384, limits assumed); test: GST pull-down from cell lysate, anti-Flag (M2) immunoblot
# T2 construct: written N-terminal here
# Protocol: To test whether JIP-1 binding to JNK is also isoform-dependent, a binding assay was utilized. Cell lysates (1 ml in TLB) containing JNK1, JNK2, or p38 MAP kinase, each tagged with the Flag epitope, were incubated with 5 μg GST-fusion proteins pre-bound to 10 μl glutathione-Sepharose. […] The GST-ATF2 fusion protein contains residues 1-109 of ATF2, and the GST-Jun fusion protein contains residues 1-79 of c-Jun. After incubation for one hour at 4° C. and three washes with TLB, bound proteins were detected by protein immunoblot analysis with the M2 monoclonal antibody, which is specific for the Flag epitope. Dérijard, et al., supra; Sluss et al., supra; Gupta et al., supra. When ATF2 or c-jun GST fusion proteins were used in this assay, binding to JNK1 was greater than binding to JNK2. This finding is consistent with the results of previous studies. […] The level of binding of these fusion proteins to JNK1 was similar to the level of binding to JNK2.
# T2 sequence (P45983 other isoform, or with tags, fused parts or gaps limits assumed): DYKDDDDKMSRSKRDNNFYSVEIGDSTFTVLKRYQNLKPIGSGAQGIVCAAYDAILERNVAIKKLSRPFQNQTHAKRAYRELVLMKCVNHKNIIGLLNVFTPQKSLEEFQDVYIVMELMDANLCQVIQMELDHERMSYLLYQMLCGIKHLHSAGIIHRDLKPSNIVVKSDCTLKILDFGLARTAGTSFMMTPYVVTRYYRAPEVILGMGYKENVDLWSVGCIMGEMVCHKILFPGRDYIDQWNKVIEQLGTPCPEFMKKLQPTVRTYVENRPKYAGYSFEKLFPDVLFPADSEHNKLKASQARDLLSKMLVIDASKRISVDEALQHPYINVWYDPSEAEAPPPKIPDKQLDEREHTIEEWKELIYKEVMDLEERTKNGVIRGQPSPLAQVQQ
molecule,measurement,setting,value
ERK2 (immune complex from CHO cells),"phosphorylation of substrate (myelin basic protein) by ERK, immune complex kinase assay",[1],JIP-1 caused no significant change in the phosphorylation of substrates by the related MAP kinases p38 and ERK2
JNK (immune complex from CHO cells),"phosphorylation of c-Jun (GST-Jun) by JNK, immune complex kinase assay",[1],JIP-1 markedly inhibited the phosphorylation of c-Jun by JNK
p38 (immune complex from CHO cells),"phosphorylation of substrate (GST-ATF2) by p38, immune complex kinase assay",[1],JIP-1 caused no significant change in the phosphorylation of substrates by the related MAP kinases p38 and ERK2
B1,binding result,[2],no binding
B2,binding result,[2],no binding
